Source: patent US7629135B2, “Toll-like receptor agonists and antagonists and methods of use thereof” (The Board of Trustees of the University of Illinois, priority 2006, dated 2009)

Experiments:
[1] = tested on: mouse bone marrow derived macrophages (BMDM); assay: G-CSF secretion in mouse BMDM (ELISA); type: cell-based; conditions: for secreted mouse G-CSF: mouse BMDM
Experimental: SAA induces G-CSF expression in monocytes and macrophages: To determine whether SAA plays a role in neutrophilia, the ability of SAA to stimulate G-CSF expression was investigated. Human peripheral blood monocytes (PBMC) were incubated with SAA, and the concentration of secreted G-CSF in the culture medium was determined at various time points after stimulation. The concentration of SAA used in this experiment (1 μM) was well within its physiological range (0.08 μM to 80 μM). […] Since subsequent studies used mice for measurement of G-CSF secretion and neutrophilia, SAA-induced G-CSF expression in mouse bone marrow derived macrophages (BMDM) was determined, of which 98% were F4/80^+ CD14^+ based on flow cytometry analysis. […] The basal level of G-CSF remained stable at approximately 42 pg/ml/10^6 cells over the entire course of incubation.
It was next determined whether induction of G-CSF expression was a primary function of SAA or resulted from contaminating LPS in the SAA preparation. The LPS concentration in the recombinant SAA preparation was ≦0.1 ng/μg protein, translating into ≦1.14 ng/ml LPS in a typical experiment with 1 μM SAA. LPS at this or 10-fold higher concentrations was tested for its effect on the expression of G-CSF. […] Given that most proteins are heat labile while LPS is heat resistant, the ability of heat-treated SAA (1 μM) and LPS (1 μg/ml) to stimulate G-CSF secretion in mouse BMDM was examined. After boiling for 25 min, LPS retained its ability to induce G-CSF production by ˜83%. […] In parallel experiments, polymyxin B, an amphiphilic cyclic polycationic peptide that specifically binds to LPS and blocks the cytokine-inducing effect of LPS (Stokes et al., 1989), was used to treat SAA or LPS prior to incubation with BMDM. […] Under the same experimental conditions, polymyxin B reduced LPS-stimulated G-CSF secretion by more than 70%.
It was previously shown that FPRL1 is involved in SAA-induced IL-8 production in human neutrophils (He et al., 2003). It has also been shown that SAA binds to FPRL1 and stimulates the production of matrix metalloproteinase (O'Hara et al., 2004). […] A role of TLR2 in SAA-stimulated G-CSF expression was examined.
Cell preparation and culture: Human peripheral blood monocytes were prepared from fresh, heparinized venous blood by Ficoll-Hypaque density-gradient centrifugation. Blood drawing followed a protocol approved by the Institutional Review Board at the University of Illinois at Chicago. Purified monocytes (>93% CD14^+ by flow cytometry) were kept in nonadherent condition in RPMI 1640 containing 0.5% FBS and maintained at 37° C. Mouse macrophages were differentiated from bone marrow cells. Mouse bone marrow cells were aspirated from the femurs of 8-12-week-old mice and cultured at 37° C. in 5% CO2 in RPMI 1640 medium containing 10% FBS, 15% L-cell conditional medium, 10 mM HEPES, 2 mM L-glutamine, 100 IU/ml penicillin, and 50 μg/ml streptomycin. The medium was changed every three days. Macrophages (about 98% F4/80+ by flow cytometry) were obtained after 7 days of culture. The mouse macrophage cell line RAW264.7 cells were maintained in DMEM medium supplemented with 10% FBS, 10 mM HEPES, 2 mM L-glutamine, 100 IU/ml penicillin, and 50 μg/ml streptomycin. TLR2-HeLa cells were generated by transfection of HeLa cell with the expression construct pUNO-hTLR2 (InvivoGen). Stable transfectants were selected with Blasticidin at 20 μg/ml for 2 weeks. Mock-transfected HeLa cells were generated similarly, with a pUNO empty vector. Cells were maintained in DMEM supplemented with 10% heat-inactivated FBS, 2 mM L-glutamine, 100 IU/ml penicillin, and 50 μg/ml streptomycin. Expression of TLR2 was confirmed using an anti-TLR2 antibody (eBioscience) and FTTC-conjugated anti-mouse antibody, on a FACSCalibur flow cytometer (Becton Dickinson). FIGS. 12 and 13 are plasmid maps of pUNO-hTLR2 and pNF-κB-Luc, respectively. […]

NF-κB = assay: Electrophoresis mobility shift assay (EMSA) with BMDM nuclear extracts; type: cell-based, mouse; conditions: SAA-stimulated BMDM, after 30 min
Experimental: To investigate the mechanism for SAA-induced G-CSF production, the level of G-CSF transcript in SAA-stimulated BMDM was determined. […] The induction of G-CSF transcript peaked at 4 h after SAA stimulation. Since transcription of the G-CSF gene involves NF-κB binding to the RelA/p65 consensus element in the CK-1 site of the G-CSF promoter (Dunn et al., 1994; Hareng and Hartung, 2002), the role of NF-κB in SAA-stimulated G-CSF expression was determined. […] Using oligonucleotide probe based on the sequence of the CK-1 site (−161 to −152 in the G-CSF promoter), a protein •DNA complex (FIG. 2C) was identified. […] Inclusion of a RelA/p65 antibody blocking peptide in the assay abrogated the immunoprecipitation (FIG. 2D).
EMSA: Nuclear extracts were isolated using the method of Dignam et al (Dignam et al., 1983) with minor modifications. For each sample, 5×10^6 cells were used. Radiolabeling of the NF-κB probe and CK-1 probe, binding reactions, electrophoresis, and autoradiography were conducted as described previously (He et al., 2003).

C57BL/6 mice = assay: SAA-induced neutrophilia in mice; type: in vivo, mouse
Experimental: SAA stimulates neutrophilia through G-CSF: To investigate whether SAA-induced G-CSF secretion contributes to neutrophilia, in vivo studies were conducted with daily administration of SAA in mice. C57BL/6 mice were injected subcutaneously (s.c.) with a daily dose of 120 μg SAA/kg body weight (˜3 μg of SAA each mouse) for 7 consecutive days. At different time points after the injection was initiated, blood neutrophil numbers were determined and the results were compared to neutrophil numbers prior to SAA administration. […] To establish a causal relationship between SAA-induced G-CSF production and neutrophilia in mice, wild-type C57BL/6 mice wre compared with csf3^−/− mice for changes in neutrophil count.
SAA-induced neutrophilia: For analysis of SAA-induced neutrophil increase, SAA was injected subcutaneously into both G-CSF deficient (csf3^−/−) (n=5) and csf3^+/+ (n=5), age- and sex-matched littermates (8-9 weeks, male), at doses of 120 μg/kg/d in 200 μl PBS. SAA was administered daily for 7 consecutive days (168 h). Blood samples were collected before and at 48, 120, and 168 h after the initial SAA injection. Age and sex-matched mice of both tlr2^−/− (n=7) and C57BL/6 (n=7) were also used for this experiment. Blood was collected by eye puncture using heparinized capillaries and placed into EDTA-treated tubes. Total white blood cell (WBC) count and WBC differential count were determined using a Hemavet 950FS multispecies hematology analyzer (Drew Scientific).

B1: SAA: Recombinant human SAA purchased from PeproTech; major acute-phase protein of 104 amino acids (protein, UniProt P0DJI8 19-122, looked up)
Serum amyloid A-1 protein: RSFFSFLGEAFDGARDMWRAYSDMREANYIGSDKYFHARGNYDAAKRGPGGAWAAEVITDARENIQRFFGHGAEDSLADQAANEWGRSGKDPNHFRPAGLPEKY
[1]; BMDM, SAA, experiments of FIG. 4
  maximal G-CSF production: 446 pg/ml/10^6 cells
[1]; SAA 1 μM, boiled 25 min, BMDM, 16 h
  ability to stimulate G-CSF secretion after heat treatment: could no longer stimulate G-CSF secretion
[1]; SAA 1 μM, after 8 h
  secreted mouse G-CSF: 155 pg/ml/10^6 cells
[1]; SAA 1 μM, after 24 h
  secreted mouse G-CSF: 965 pg/ml/10^6 cells
[1]; tlr2−/− vs wild-type BMDM, SAA 1 μM
  ability to induce G-CSF protein secretion in tlr2−/− BMDM: drastically reduced
NF-κB
  formation of NF-κB•DNA complex: stimulated the formation of NF-κB•DNA complex
C57BL/6 mice; C57BL/6 mice, SAA 120 μg/kg s.c. daily for 7 days, vs PBS, from 48 h
  peripheral blood neutrophil numbers: significant rise of neutrophil numbers
C57BL/6 mice; SAA s.c. up to 7 days
  SAA-stimulated increase in peripheral blood neutrophils in tlr2−/− mice vs wild-type: significantly lower
C57BL/6 mice; csf3−/− mice, SAA 120 μg/kg/d s.c., 48, 120 and 168 h
  peripheral blood neutrophil count response in csf3−/− mice vs wild-type: significantly reduced response
